{
  "source": "patent US20090075889A1",
  "about": "(YEDA RESEARCH AND DEVELOPMENT, published 2009)",
  "binders": {"B1": {"name": "IREN198-388 (other)", "chain": "ESTQNVTSLLKESTQGVSSLFREITASSAVSILIKPEQETDPLPVVSRNVSADAKCKKERKKKKKVTNIISFDDEEDEQNSGDVFKKTPGAGESSEDNSDRSSVNIMSAFESPFGPNSNGSQSSNSWKIDSLSLNGEFGYQKLDVKSIDDEDVDENEDDVYGNSSGRKHRGHSESPEKPLEGNTCLSQMHS", "notes": "Two-hybrid prey construct"}, "B2": {"name": "IREN198-541 (other)", "chain": "ESTQNVTSLLKESTQGVSSLFREITASSAVSILIKPEQETDPLPVVSRNVSADAKCKKERKKKKKVTNIISFDDEEDEQNSGDVFKKTPGAGESSEDNSDRSSVNIMSAFESPFGPNSNGSQSSNSWKIDSLSLNGEFGYQKLDVKSIDDEDVDENEDDVYGNSSGRKHRGHSESPEKPLEGNTCLSQMHSWAPLKVLHNDSDILFPVSGVGSYSPADAPLGSLENGTGPEDHVLPDPGLRYSVEASSPGHGSPLSSLLPSASVPESMTISELRQATVAMMNRKDELEEENRSLRNLLDGEMEHSAALRQEVDTLKRKVAEQEERQGMKVQALASYLCYFVRRF", "notes": "Two-hybrid prey construct; also called N-terminal deletion mutant of IREN; IRENΔN"}, "B3": {"name": "TRAF2225-501 (other, human, UniProt Q12933 225-501, looked up)", "chain": "ETVEGEKQQEHEVQWLREHLAMLLSSVLEAKPLLGDQSHAGSELLQRCESLEKKTATFENIVCVLNREVERVAMTAEACSRQHRLDQDKIEALSSKVQQLERSIGLKDLAMADLEQKVLEMEASTYDGVFIWKISDFARKRQEAVAGRIPAIFSPAFYTSRYGYKMCLRIYLNGDGTGRGTHLSLFFVVMKGPNDALLRWPFNQKVTLMLLDQNNREHVIDAFRPDVTSSSFQRPVNDMNIASGCPLFCPVSKMEAKNSYVRDDAIFIKAIVDLTGL", "notes": "range 225-501; Two-hybrid bait construct; also called C-terminal part of TRAF2, amino acids 225 to 501; C-terminal construct comprising the TRAF domain"}, "B4": {"name": "IREN 10B (other)", "chain": "MSGSQNNDKRQFLLERLLDAVKQCQIRFGGRKEIASDSDSRVTCLCAQFEAVLQHGLKRSRGLALTAAAIKQAAGFASKTETEPVFWYYVKEVLNKHELQRFYSLRHIASDVGRGRAWLRCALNEHSLERYLHMLLADRCRLSTFYEDWSFVMDEERSSMLPTMAAGLNSILFAINIDNKDLNGQSKFAPTVSDLLKESTQNVTSLLKESTQGVSSLFREITASSAVSILIKPEQETDPLPVVSRNVSADAKCKKERKKKKKVTNIISFDDEEDEQNSGDVFKKTPGAGESSEDNSDRSSVNIMSAFESPFGPNSNGSQSSNSWKIDSLSLNGEFGYQKLDVKSIDDEDVDENEDDVYGNSSGRKHRGHSESPEKPLEGNTCLSQMHSWAPLKVLHNDSDILFPVSGVGSYSPADAPLGSLENGTGPEDHVLPDPGLRYSVEASSPGHGSPLSSLLPSASVPESMTISELRQATVAMMNRKDELEEENRSLRNLLDGEMEHSAALRQEVDTLKRKVAEQEERQGMKVQALARENEVLKVQLKKYVGAVQMLKREGQTAEVPNLWSVDGEVTVAEQKPGEIAEELASSYERKLIEVAEMHGELIEFNERLHRALVAKEALVSQMRQELIDLRGPVPGDLSQTSEDQSLSDFEISNRALINVWIPSVFLRGKAANAFHVYQVYIRIKDDEWNIYRRYTEFRSLHHKLQNKYPQVRAYNFPPKKAIGNKDAKFVEERRKQLQNYLRSVMNKVIQMVPEFAASPKKETLIQLMPFFVDITPPGEPVNSRPKAASRFPKLSRGQPRETRNVEPQSGDL", "notes": "Splice isoform of IREN; Used as both bait and prey in yeast two-hybrid; also called clone 10B"}, "B5": {"name": "IREN (other)", "chain": "MSGSQNNDKRQFLLERLLDAVKQCQIRFGGRKEIASDSDSRVTCLCAQFEAVLQHGLKRSRGLALTAAAIKQAAGFASKTETEPVFWYYVKEVLNKHELQRFYSLRHIASDVGRGRAWLRCALNEHSLERYLHMLLADRCRLSTFYEDWSFVMDEERSSMLPTMAAGLNSILFAINIDNKDLNGQSKFAPTVSDLLKESTQNVTSLLKESTQGVSSLFREITASSAVSILIKPEQETDPLPVVSRNVSADAKCKKERKKKKKVTNIISFDDEEDEQNSGDVFKKTPGAGESSEDNSDRSSVNIMSAFESPFGPNSNGSQSSNSWKIDSLSLNGEFGYQKLDVKSIDDEDVDENEDDVYGNSSGRKHRGHSESPEKPLEGNTCLSQMHSWAPLKVLHNDSDILFPVSGVGSYSPADAPLGSLENGTGPEDHVLPDPGLRYSVEASSPGHGSPLSSLLPSASVPESMTISELRQATVAMMNRKDELEEENRSLRNLLDGEMEHSAALRQEVDTLKRKVAEQEERQGMKVQALASYLCYFVRRF", "notes": "Tested in yeast two-hybrid as a hybrid protein; the fusion partner is not included in the chain; also called IκB REgulator; IREN protein"}, "B6": {"name": "human TRAF2 (other, UniProt Q12933 1-501, looked up)", "chain": "MAAASVTPPGSLELLQPGFSKTLLGTKLEAKYLCSACRNVLRRPFQAQCGHRYCSFCLASILSSGPQNCAACVHEGIYEEGISILESSSAFPDNAARREVESLPAVCPSDGCTWKGTLKEYESCHEGRCPLMLTECPACKGLVRLGEKERHLEHECPERSLSCRHCRAPCCGADVKAHHEVCPKFPLTCDGCGKKKIPREKFQDHVKTCGKCRVPCRFHAIGCLETVEGEKQQEHEVQWLREHLAMLLSSVLEAKPLLGDQSHAGSELLQRCESLEKKTATFENIVCVLNREVERVAMTAEACSRQHRLDQDKIEALSSKVQQLERSIGLKDLAMADLEQKVLEMEASTYDGVFIWKISDFARKRQEAVAGRIPAIFSPAFYTSRYGYKMCLRIYLNGDGTGRGTHLSLFFVVMKGPNDALLRWPFNQKVTLMLLDQNNREHVIDAFRPDVTSSSFQRPVNDMNIASGCPLFCPVSKMEAKNSYVRDDAIFIKAIVDLTGL", "notes": "range 1-501; the fusion partner is not included in the chain; also called hTRAF2; full length TRAF2"}},
  "key": {"[1]": {"target": "B6", "experiment": "yeast two-hybrid, bait TRAF2, prey IREN198-388", "procedure": "(§1) Positive clones picked up in the two hybrid screen were subjected to lacZ color development test in SFY526 yeast cells, following Clontech Laboratories' manual (for details see above mentioned publications and patent applications). In brief, transformants were allowed to grow at 30° C. for 2-4 days until reaching about 2 mm in diameter, then were transferred onto Whatman filters. The filters went through a freeze/thaw treatment in order to permeabilize the cells, then soaked in a buffer (16.1 mg/ml Na₂HP0₄ 7H₂0; 5.5 mg/ml NaH₂P0₄′H₂0; 0.75 mg/ml KCl; 0.75 mg/ml MgS0₄′7H₂O, pH=7) containing 0.33 mg/ml X-gal and 0.35 mM β-mercaptoethanol. Colonies were monitored for development of blue color which is an indication for induction of β-galactosidase.\n(§2) In order to narrow down the region on the TRAF2 molecule which interacts with IREN two additional constructs were made. One construct comprising the N-terminal part of the TRAF2 molecule, amino acids 1 to 224 designated RING₁₋₂₂₄ comprising the Ring finger and the zinc finger motifs. The second construct included only the C-terminal part of TRAF2, amino acids 225 to 501, covering the “TRAF-domain” as well as an additional 42 amino acids. These two constructs were used as baits in two hybrid tests."}, "[2]": {"target": "B6", "experiment": "yeast two-hybrid, bait TRAF2, prey IREN198-541", "procedure": "as §1, §2"}, "[3]": {"target": "B5", "experiment": "yeast two-hybrid, bait TRAF2225-501, prey IREN", "procedure": "as §1, §2"}, "[4]": {"target": "the molecule itself", "experiment": "yeast two-hybrid, bait IREN 10B, prey IREN 10B"}, "[5]": {"target": "the molecule itself", "experiment": "yeast two-hybrid"}, "[6]": {"target": "B5", "experiment": "yeast two-hybrid, bait TRAF2, prey IREN", "procedure": "as §1, §2"}, "[7]": {"target": "B4", "experiment": "yeast two-hybrid, bait TRAF2, prey IREN 10B"}},
  "data": [
    {"binder": "B1", "values": [
      {"measurement": "binding result", "setting": "[1]", "result": "binds"}
    ]},
    {"binder": "B2", "values": [
      {"measurement": "binding result", "setting": "[2]", "result": "binds"}
    ]},
    {"binder": "B3", "values": [
      {"measurement": "binding result", "setting": "[3]", "result": "binds"}
    ]},
    {"binder": "B4", "values": [
      {"measurement": "binding result", "setting": "[4]", "result": "binds"}
    ]},
    {"binder": "B5", "values": [
      {"measurement": "binding result", "setting": "[5]", "result": "no binding"}
    ]},
    {"binder": "B6", "values": [
      {"measurement": "binding result", "setting": "[6]", "result": "binds"},
      {"measurement": "binding result", "setting": "[7]", "result": "binds"}
    ]}
  ]
}
